Reference: PMC5908803, “Cryo-EM structure of the RC-LH core complex from an early branching photosynthetic prokaryote” (Nature Communications, 2018)

Target: the molecule itself
Test: cryo-EM structure; single-particle cryo-EM of the rcRC-LH complex purified whole from native membranes, 3 mg/mL in 0.02% DDM, 150 mM NaCl, 50 mM Tris-HCl pH 8.0; 4.1 Å (subunit X helix seen after low-pass filter to 6 Å)

B1: LHαβ heterodimer of Roseiflexus castenholzii (complex)
chain 1: MKDRPFEFRTSVVVSTLLGLVMALLIHFVVLSSGAFNWLRAP
chain 2: MTDKPQNDLVPDQWKPLFNNAQWLVHDIVVKTIYGGLIIAVIAHVLCWAWTPWIR
notes: α subunit of the LH antenna, Roseiflexus castenholzii, encoded by puf A; β subunit of the LH antenna, Roseiflexus castenholzii, encoded by puf B; Each heterodimer holds two B880, one B800 and one keto-γ-carotene; 15 of them form the open elliptical LH ring; also called LHαβ subunit
stoichiometry N: 15
